Test results from the supplement of paper PMC10065799, “High-throughput profiling of sequence recognition by tyrosine kinases and SH2 domains using bacterial peptide display” (eLife, 2023).

Experiments:
[1] = biological target: SHP2-C SH2; assay: SH2 binding enrichment of the phosphorylated peptide, bacterial display (enrichment ratio); higher = better substrate or ligand; peptides without Tyr show the background
[2] = biological target: Grb2 SH2 (UniProt P62993); assay: as above
[3] = biological target: c-Src SH2; assay: as above
[4] = biological target: FGFR3 (UniProt P22607); assay: phosphorylation enrichment, bacterial display (enrichment ratio); higher = better substrate or ligand; peptides without Tyr show the background
[5] = system: c-Src; assay: as above
[6] = biological target: EPHB2 (UniProt P29323); assay: as above
[7] = system: c-Abl (mouse); assay: as above
[8] = biological target: EPHB1 (UniProt P54762); assay: as above
[9] = system: AncSZ; assay: as above
[10] = biological target: Hck (UniProt P08631); assay: as above
[11] = biological target: MERTK (UniProt Q12866); assay: as above
[12] = biological target: FGFR1 (UniProt P11362); assay: as above
[13] = biological target: Fyn (UniProt P06241); assay: as above
[14] = biological target: Jak2 (UniProt O60674); assay: as above
[15] = system: Fer (mouse); assay: as above
[16] = biological target: Fes (UniProt P07332); assay: as above
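Wherever SH2 binding enrichment of the phosphorylated peptide, bacterial display is given: peptide library displayed on the E. coli surface as eCPX fusions, selected cells deep-sequenced, score is each peptide's frequency after selection divided by its frequency in the input.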
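Wherever phosphorylation enrichment, bacterial display is given: 11-residue human phosphosite peptides and single-mutation variants displayed on the E. coli surface, counted by deep sequencing, each peptide's frequency after selection divided by its frequency in the unselected input library; frequency after pTyr selection over input frequency; kinase dosed for 20-30% of maximal phosphorylation in three min.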

Sequence of Jak2 (O60674 whole entry, looked up): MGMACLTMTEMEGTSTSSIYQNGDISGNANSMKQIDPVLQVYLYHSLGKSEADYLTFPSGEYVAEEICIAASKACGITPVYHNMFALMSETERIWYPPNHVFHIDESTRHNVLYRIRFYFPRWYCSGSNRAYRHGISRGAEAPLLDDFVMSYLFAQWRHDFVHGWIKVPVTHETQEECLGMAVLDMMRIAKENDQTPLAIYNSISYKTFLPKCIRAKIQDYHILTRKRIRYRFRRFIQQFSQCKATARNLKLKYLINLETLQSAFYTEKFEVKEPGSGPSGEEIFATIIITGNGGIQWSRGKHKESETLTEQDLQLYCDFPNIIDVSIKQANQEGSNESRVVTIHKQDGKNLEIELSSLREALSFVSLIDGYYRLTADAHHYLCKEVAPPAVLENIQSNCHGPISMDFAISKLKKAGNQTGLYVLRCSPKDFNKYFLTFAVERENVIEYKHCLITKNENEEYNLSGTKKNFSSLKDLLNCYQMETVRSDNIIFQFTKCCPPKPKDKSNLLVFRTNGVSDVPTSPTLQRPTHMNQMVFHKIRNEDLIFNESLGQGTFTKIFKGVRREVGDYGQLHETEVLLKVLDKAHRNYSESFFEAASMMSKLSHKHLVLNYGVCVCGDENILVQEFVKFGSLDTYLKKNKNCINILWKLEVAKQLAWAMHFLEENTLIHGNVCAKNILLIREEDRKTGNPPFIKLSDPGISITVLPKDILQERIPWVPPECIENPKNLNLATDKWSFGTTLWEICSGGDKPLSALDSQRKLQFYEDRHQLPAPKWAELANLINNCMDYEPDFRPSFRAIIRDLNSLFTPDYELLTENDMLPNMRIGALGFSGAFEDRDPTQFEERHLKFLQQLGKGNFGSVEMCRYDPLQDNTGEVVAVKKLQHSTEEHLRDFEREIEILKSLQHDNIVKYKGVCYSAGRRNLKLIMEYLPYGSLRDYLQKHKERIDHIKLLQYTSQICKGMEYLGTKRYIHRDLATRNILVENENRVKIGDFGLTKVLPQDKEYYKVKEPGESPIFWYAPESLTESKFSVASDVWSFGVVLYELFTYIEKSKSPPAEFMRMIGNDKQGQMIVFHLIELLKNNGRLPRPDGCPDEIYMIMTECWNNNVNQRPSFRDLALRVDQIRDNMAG
Sequence of Hck (P08631 whole entry, looked up): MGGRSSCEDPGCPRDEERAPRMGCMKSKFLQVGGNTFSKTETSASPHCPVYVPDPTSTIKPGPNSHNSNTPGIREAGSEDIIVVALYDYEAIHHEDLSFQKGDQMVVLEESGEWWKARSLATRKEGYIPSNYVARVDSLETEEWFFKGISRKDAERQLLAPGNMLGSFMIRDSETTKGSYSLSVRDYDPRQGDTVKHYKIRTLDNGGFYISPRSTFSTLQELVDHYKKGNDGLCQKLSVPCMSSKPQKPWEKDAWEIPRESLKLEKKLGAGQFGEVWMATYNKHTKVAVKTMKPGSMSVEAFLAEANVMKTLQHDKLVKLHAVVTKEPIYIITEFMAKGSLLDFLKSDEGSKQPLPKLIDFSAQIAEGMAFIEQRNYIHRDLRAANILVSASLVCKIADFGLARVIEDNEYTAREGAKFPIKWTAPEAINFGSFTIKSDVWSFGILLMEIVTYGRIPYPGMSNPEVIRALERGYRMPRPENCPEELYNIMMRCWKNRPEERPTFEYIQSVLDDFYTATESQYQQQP
Sequence of EPHB2 (P29323 whole entry, looked up): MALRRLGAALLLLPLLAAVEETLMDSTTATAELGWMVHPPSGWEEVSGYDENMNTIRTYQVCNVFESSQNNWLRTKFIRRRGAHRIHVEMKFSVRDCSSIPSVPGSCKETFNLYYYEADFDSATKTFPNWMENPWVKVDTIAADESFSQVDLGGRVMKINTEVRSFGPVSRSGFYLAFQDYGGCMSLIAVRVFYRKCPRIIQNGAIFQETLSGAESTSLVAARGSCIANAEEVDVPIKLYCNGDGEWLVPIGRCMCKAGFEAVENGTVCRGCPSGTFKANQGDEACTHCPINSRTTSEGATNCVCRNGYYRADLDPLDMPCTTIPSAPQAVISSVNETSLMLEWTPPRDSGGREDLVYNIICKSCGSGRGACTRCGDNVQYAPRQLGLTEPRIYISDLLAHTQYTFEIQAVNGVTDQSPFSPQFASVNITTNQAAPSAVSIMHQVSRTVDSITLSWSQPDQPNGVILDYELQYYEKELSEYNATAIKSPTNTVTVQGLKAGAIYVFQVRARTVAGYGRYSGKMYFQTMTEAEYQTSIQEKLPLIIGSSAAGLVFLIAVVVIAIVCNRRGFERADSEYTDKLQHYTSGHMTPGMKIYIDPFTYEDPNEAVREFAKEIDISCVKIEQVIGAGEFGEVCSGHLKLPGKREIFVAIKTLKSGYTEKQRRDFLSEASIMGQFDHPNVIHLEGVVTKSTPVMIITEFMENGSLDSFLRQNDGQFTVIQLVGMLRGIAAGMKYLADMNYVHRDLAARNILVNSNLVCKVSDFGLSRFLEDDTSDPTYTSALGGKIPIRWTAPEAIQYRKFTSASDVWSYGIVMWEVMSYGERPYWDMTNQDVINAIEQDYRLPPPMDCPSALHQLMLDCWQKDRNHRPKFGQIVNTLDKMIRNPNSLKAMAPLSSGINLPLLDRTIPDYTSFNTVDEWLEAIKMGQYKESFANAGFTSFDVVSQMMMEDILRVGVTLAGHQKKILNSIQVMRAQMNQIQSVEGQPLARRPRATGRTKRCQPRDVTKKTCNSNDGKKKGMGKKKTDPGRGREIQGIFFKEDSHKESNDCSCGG
Sequence of Fes (P07332 whole entry, looked up, the tested form may be a part): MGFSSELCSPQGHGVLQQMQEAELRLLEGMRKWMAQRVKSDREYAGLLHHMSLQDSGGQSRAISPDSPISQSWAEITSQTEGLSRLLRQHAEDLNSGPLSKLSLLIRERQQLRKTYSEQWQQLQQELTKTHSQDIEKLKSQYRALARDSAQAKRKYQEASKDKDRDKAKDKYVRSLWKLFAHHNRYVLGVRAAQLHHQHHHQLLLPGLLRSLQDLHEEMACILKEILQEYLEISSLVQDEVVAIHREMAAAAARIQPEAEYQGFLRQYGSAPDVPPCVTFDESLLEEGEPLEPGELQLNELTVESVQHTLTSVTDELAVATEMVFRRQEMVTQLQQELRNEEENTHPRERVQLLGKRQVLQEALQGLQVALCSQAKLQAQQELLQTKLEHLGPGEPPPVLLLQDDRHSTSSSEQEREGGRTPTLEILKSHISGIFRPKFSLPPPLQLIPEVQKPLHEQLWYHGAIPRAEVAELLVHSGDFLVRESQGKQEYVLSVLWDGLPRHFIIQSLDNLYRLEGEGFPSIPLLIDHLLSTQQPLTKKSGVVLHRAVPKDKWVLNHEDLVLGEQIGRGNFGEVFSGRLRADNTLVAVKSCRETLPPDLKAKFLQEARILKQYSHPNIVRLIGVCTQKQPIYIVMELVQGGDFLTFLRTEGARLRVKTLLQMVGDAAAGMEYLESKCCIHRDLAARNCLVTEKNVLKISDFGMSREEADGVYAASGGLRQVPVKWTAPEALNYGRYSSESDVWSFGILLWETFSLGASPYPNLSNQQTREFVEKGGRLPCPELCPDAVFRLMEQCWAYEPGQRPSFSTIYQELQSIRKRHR
Sequence of MERTK (Q12866 whole entry, looked up): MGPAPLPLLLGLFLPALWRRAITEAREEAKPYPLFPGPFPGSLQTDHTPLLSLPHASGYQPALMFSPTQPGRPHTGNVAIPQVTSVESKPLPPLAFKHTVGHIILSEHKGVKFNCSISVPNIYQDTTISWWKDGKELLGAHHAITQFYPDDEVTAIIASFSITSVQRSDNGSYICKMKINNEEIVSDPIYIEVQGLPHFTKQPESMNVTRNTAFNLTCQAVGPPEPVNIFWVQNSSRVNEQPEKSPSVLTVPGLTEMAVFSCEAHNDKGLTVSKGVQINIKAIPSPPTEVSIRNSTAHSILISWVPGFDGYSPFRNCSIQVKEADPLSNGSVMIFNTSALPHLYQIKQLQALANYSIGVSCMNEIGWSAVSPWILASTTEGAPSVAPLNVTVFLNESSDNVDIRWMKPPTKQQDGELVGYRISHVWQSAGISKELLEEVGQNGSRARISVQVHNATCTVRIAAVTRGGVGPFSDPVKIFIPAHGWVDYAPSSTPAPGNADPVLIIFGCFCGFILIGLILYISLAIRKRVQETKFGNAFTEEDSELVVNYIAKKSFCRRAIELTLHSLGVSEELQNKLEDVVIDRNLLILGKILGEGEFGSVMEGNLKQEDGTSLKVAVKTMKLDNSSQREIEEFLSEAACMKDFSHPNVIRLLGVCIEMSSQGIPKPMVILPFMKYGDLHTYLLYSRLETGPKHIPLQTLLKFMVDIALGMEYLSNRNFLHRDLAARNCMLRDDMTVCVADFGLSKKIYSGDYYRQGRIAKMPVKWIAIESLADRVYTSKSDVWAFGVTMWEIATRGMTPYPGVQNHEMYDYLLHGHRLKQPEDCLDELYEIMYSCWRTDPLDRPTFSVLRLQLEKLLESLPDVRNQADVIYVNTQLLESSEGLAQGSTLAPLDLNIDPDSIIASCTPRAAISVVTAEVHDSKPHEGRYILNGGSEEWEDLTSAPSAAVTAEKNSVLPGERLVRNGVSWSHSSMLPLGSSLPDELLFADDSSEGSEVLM
Sequence of Fyn (P06241 whole entry, looked up): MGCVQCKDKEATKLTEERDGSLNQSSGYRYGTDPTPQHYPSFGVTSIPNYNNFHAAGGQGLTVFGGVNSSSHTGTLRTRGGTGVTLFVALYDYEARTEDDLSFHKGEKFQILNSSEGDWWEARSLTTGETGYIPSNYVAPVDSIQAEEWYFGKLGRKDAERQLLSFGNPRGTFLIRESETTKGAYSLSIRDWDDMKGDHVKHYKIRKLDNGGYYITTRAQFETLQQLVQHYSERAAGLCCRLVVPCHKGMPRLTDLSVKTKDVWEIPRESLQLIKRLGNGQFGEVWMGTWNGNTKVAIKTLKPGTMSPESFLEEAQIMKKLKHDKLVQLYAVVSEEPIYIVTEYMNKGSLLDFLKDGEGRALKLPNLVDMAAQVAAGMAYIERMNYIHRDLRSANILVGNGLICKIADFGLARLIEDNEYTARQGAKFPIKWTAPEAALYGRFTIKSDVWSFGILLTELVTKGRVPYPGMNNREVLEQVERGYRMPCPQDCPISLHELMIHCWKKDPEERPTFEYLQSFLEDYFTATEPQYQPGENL

Sequence | SH2 binding enrichment [1] | SH2 binding enrichment [2] | SH2 binding enrichment [3] | phosphorylation enrichment [4] | phosphorylation enrichment [5] | phosphorylation enrichment [6] | phosphorylation enrichment [7] | phosphorylation enrichment [8] | phosphorylation enrichment [9] | phosphorylation enrichment [10] | phosphorylation enrichment [11] | phosphorylation enrichment [12] | phosphorylation enrichment [13] | phosphorylation enrichment [14] | phosphorylation enrichment [15] | phosphorylation enrichment [16]
KRTFEYEADKN [DENND2B_Y396] | 0.702 | 0.747 | 0.576 | 0.576 | 0.39 | 0.526 | 0.61 | 0.545 | 0.947 | 0.483 | 0.403 | 0.507 | 0.471 | 0.781 | 0.496 | 1.03
DRVALYIAREG [AACS_Y117] | 0.928 | 0.896 | 0.487 | 0.717 | 0.432 | 0.534 | 0.731 | 0.671 | 0.957 | 0.569 | 0.395 | 0.519 | 0.468 | 1.02 | 0.484 | 1.14
LAVVDYMRRQK [ATM_Y1915] | 0.652 | 0.675 | 0.531 | 0.437 | 0.553 | 0.337 | 0.604 | 0.285 | 0.674 | 0.453 | 0.513 | 0.373 | 0.413 | 0.605 | 0.374 | 0.655
RYVVLYDAELT [ERCC4_Y581] | 7.24 | 1.47 | 6.75 | 1.04 | 0.605 | 1.96 | 0.817 | 2.77 | 1.3 | 0.66 | 1.98 | 0.736 | 0.657 | 1.24 | 0.629 | 1.49

Further lines, with some results ahead:

SH2 binding enrichment [1] | SH2 binding enrichment [2] | SH2 binding enrichment [3] | Sequence | phosphorylation enrichment [4] | phosphorylation enrichment [5] | phosphorylation enrichment [6] | phosphorylation enrichment [7] | phosphorylation enrichment [8] | phosphorylation enrichment [9] | phosphorylation enrichment [10] | phosphorylation enrichment [11] | phosphorylation enrichment [12] | phosphorylation enrichment [13] | phosphorylation enrichment [14] | phosphorylation enrichment [15] | phosphorylation enrichment [16]
0.744 | 0.883 | 0.675 | NNRVFYDNSDR [RS1_Y177_G178D] | 0.471 | 0.409 | 0.442 | 0.453 | 0.412 | 0.603 | 0.4 | 0.42 | 0.435 | 0.45 | 0.499 | 0.471 | 0.628
1.39 | 0.481 | 0.587 | TFACSYTPVKA [FLNB_Y708_YF] | 0.653 | 0.536 | 0.577 | 0.961 | 0.527 | 1.16 | 0.562 | 0.342 | 0.582 | 0.444 | 1.09 | 0.449 | 1.08
0.525 | 0.839 | 0.724 | DYCDLYGGEKF [PTPN11_Y66_Y63C] | 2.56 | 2.39 | 2.14 | 0.747 | 2.93 | 1.72 | 2.31 | 0.477 | 3.45 | 1.39 | 0.914 | 0.967 | 1.05
1.29 | 1.2 | 1.22 | KGRGEYFAIKA [PRKCD_Y374] | 2.67 | 0.47 | 0.905 | 0.769 | 0.943 | 0.702 | 0.614 | 0.381 | 4.32 | 0.426 | 0.702 | 0.451 | 0.666
